Experimental data as given in doi:10.1101/2024.07.16.603655 (bioRxiv, 2024).

B1: Prkra-6xHis (recombinant wild-type zebrafish Prkra) (natural protein, UniProt B0V3F8 1-282, looked up)
chain: MAPQRSQDKTPIQLLHEYGIKISSAPKYELIHADGDAHQPSFMFSVTIGEVTCKGRGSTKKAAKHEAAEAALKLLKRDSQIIDQRDNNGLSPEAGEASNPVGILQELAMQRVWCLPEYVVFMETGPGHMKEFTIACRLEGLEETGSGSSKKLARRAAAENMIAKLQSLSGSSEITWSPPSRVYVESLRNSTGEKVSLLKRTPLSLPNTDYIQMLLEISLELGFQVTYIDIDELTVNGQYQCLVELSTRPVTVCHGSGVTSSNAHNAAAHNALQYIKMVASKH

Columns and labels:
[1] = molecular target: dsRBD3-6xHis (dsRNA binding domain 3 of zebrafish Prkra) (zebrafish); test: native gel or EMSA
native gel or EMSA = molecular target: the molecule itself; test: native gel or EMSA

| Molecule | stoichiometry N [1] | stoichiometry N (native gel or EMSA) |
| --- | --- | --- |
| dsRBD3-6xHis (dsRNA binding domain 3 of zebrafish Prkra) (domain or fragment) | 2 |  |
| B1 |  | ~2 |
